# Laboratory results: US20250041377A1, “PHARMACEUTICAL USE” (ENLITISA (SHANGHAI) PHARMACEUTICAL CO., LTD., priority 2018, published 2025)
# How the values were obtained:
# [1] = system: full thickness skin wound on the back; experiment: Acute wound model, remaining wound area; format: in vivo, C57BL/6 mice; conditions: ± SD
# Procedure: 6-8 weeks old male C57BL/6 mice were supplied by Changzhou Cvens Experimental Animal Co. Ltd (Changzhou, Jiangsu Province, China). Prior to any experiments being conducted, mice were housed under standardized conditions (at a constant temperature of 22±2° C., with alternating 12 hour periods of light and darkness), and were fed on a standard mouse diet with water, for about a week.
# General anesthesia was induced using intraperitoneal 3% chloral hydrate (1 mL/10 g of body weight). The hair on the back was shaved by a baby hair shaver and depilated with cream. The skin area was wiped and sterilized with 75% alcohol twice.
# An EMS skin biopsy punch (Electron Microscopy Sciences, P.O. Box 550, 1560 Industry Road, Hatfield, PA, USA) with a 18 mm diameter was used to make a round wound on the back. The full thickness of skin was removed and the depth of the wound reached the fascia. Wounds were left open without a suture.
# (§1) The model group was given same amount of normal saline. There were 8 mice in each group.
# Recombinant Human Epidermal Growth Factor (rhEGF, Shanghai Haohai Biological Technology Co. Ltd, 23/F, Shanghai, China) was purchased and prepared according to the manufacturer's instructions. The lyophilized rhEGF powder (100000 IU/vial) was dissolved in 20 mL of normal saline to make a solution with a concentration of 5000 IU/mL. The working dose of rhEGF for this experiment was 1285 IU/wound.
# For this experiment, Compound A was also obtained from GL Biochem (Shanghai) Ltd. The peptide powders were stored at −20° C. and dissolved in saline at concentrations of 61.8 μg/mL (Compound A), and 61 μg/mL (Compound B). 50 μL of the solutions were applied onto the wound surfaces.
# Wounds were dressed with gauze and transparent dresser after drug administration. Photographs were taken for each wound every other day from Day 0. Photos were scanned into a computer, and wound areas calculated using ImageJ image analysis software (National Institutes of Health, […]).
# The unhealed wound area was expressed as a percentage of the original wound area: […]
# where A0 and At refer to the initial area at Day 0 and the wound area at the date of measurement (time t), respectively.
# [2] = system: Hyp, VEGF and TGF-β1 in wound tissue; experiment: Acute wound model, ELISA of wound tissue; format: in vivo, C57BL/6 mice; conditions: for wound Hyp content (Mean): indicator of collagen regeneration; for TGF-β1 content (Mean): wound tissue
# Text: as §1
# Samples were taken at Day 4 and Day 7 post-wound infliction. The mice were sacrificed and the wound tissue taken by the same biopsy punch used to create the wound. Then 5 mm of tissue was cut off from the center of the sample and was preserved in 10% neutral buffered formalin (Nanchang Rain Dew Experimental Equipment Co., Ltd., Nanchang, Hubei Province, China), and analyzed by histological embedding (HE) in paraffin wax, sectioning and staining.
# The rest of the samples were stored at −80° C. for further analysis. Tissue was cut into small pieces and liquid nitrogen was added to increase brittleness. 9 mL of normal saline was added to 1 g of tissue, which was then ground using a Tissuelyser (Shanghai Jingxin Industrial Development Co., Ltd., Shanghai, China) at 55 Hz for 60 seconds, followed by centrifuging at 8000 rpm for 10 minutes at 4° C.
# The supernatant was collected, and the extracted protein was used for ELISA analysis using standard ELISA test kits and an ELISA reader (SH-1000 Hitachi, Japan). Vascular endothelial growth factor (VEGF), transforming growth factor beta 1 (TGF-β1) and hydroxyproline (Hyp) were assayed. The ELISA kits were purchased from Beijing 4A Biotech Co., Ltd. (Beijing, China).
molecule,measurement,setting,value
"rhEGF: Recombinant Human Epidermal Growth Factor, lyophilized powder dissolved in normal saline (protein, UniProt P01133 23-1207, looked up, Pro-epidermal growth factor, Recombinant Human Epidermal Growth Factor, lyophilized powder dissolved in normal saline) Pro-epidermal growth factor: PQHWSCPEGTLAGNGNSTCVGPAPFLIFSHGNSIFRIDTEGTNYEQLVVDAGVSVIMDFHYNEKRIYWVDLERQLLQRVFLNGSRQERVCNIEKNVSGMAINWINEEVIWSNQQEGIITVTDMKGNNSHILLSALKYPANVAVDPVERFIFWSSEVAGSLYRADLDGVGVKALLETSEKITAVSLDVLDKRLFWIQYNREGSNSLICSCDYDGGSVHISKHPTQHNLFAMSLFGDRIFYSTWKMKTIWIANKHTGKDMVRINLHSSFVPLGELKVVHPLAQPKAEDDTWEPEQKLCKLRKGNCSSTVCGQDLQSHLCMCAEGYALSRDRKYCEDVNECAFWNHGCTLGCKNTPGSYYCTCPVGFVLLPDGKRCHQLVSCPRNVSECSHDCVLTSEGPLCFCPEGSVLERDGKTCSGCSSPDNGGCSQLCVPLSPVSWECDCFPGYDLQLDEKSCAASGPQPFLLFANSQDIRHMHFDGTDYGTLLSQQMGMVYALDHDPVENKIYFAHTALKWIERANMDGSQRERLIEEGVDVPEGLAVDWIGRRFYWTDRGKSLIGRSDLNGKRSKIITKENISQPRGIAVHPMAKRLFWTDTGINPRIESSSLQGLGRLVIASSDLIWPSGITIDFLTDKLYWCDAKQSVIEMANLDGSKRRRLTQNDVGHPFAVAVFEDYVWFSDWAMPSVMRVNKRTGKDRVRLQGSMLKPSSLVVVHPLAKPGADPCLYQNGGCEHICKKRLGTAWCSCREGFMKASDGKTCLALDGHQLLAGGEVDLKNQVTPLDILSKTRVSEDNITESQHMLVAEIMVSDQDDCAPVGCSMYARCISEGEDATCQCLKGFAGDGKLCSDIDECEMGVPVCPPASSKCINTEGGYVCRCSEGYQGDGIHCLDIDECQLGEHSCGENASCTNTEGGYTCMCAGRLSEPGLICPDSTPPPHLREDDHHYSVRNSDSECPLSHDGYCLHDGVCMYIEALDKYACNCVVGYIGERCQYRDLKWWELRHAGHGQQQKVIVVAVCVVVLVMLLLLSLWGAHYYRTQKLLSKNPKNPYEESSRDVRSRRPADTEDGMSSCPQPWFVVIKEHQDLKNGGQPVAGEDGQAADGSMQPTSWRQEPQLCGMGTEQGCWIPVSSDKGSCPQVMERSFHMPSYGTQTLEGGVEKPHSLLSANPLWQQRALDPPHQMELTQ",ratio of remaining wound area of initial wound,"[1]; Day 0, topical 50 μL/wound once daily, rhEGF 1285 IU/mouse, Compound A 3.09 μg/mouse, Compound B 3.05 μg/mouse",82.0 ± 2.2%
same,ratio of remaining wound area of initial wound,"[1]; Day 1, topical once daily",100 ± 9.9%
same,ratio of remaining wound area of initial wound,"[1]; Day 2, topical once daily",94.1 ± 4.3%
same,ratio of remaining wound area of initial wound,"[1]; Day 3, topical once daily",78.6 ± 7.3%
same,ratio of remaining wound area of initial wound,"[1]; Day 4, topical once daily",61.5 ± 3.3%
same,ratio of remaining wound area of initial wound,"[1]; Day 5, topical once daily",53.0 ± 1.0%
same,ratio of remaining wound area of initial wound,"[1]; Day 6, topical once daily",47.2 ± 5.8%
same,wound Hyp content (Mean),[2]; Day 4,1.808 µg/mg
same,TGF-β1 content (Mean),[2]; Day 4,18190.6 pg/g
same,wound Hyp content (Mean),[2]; Day 7,2.679 µg/mg
same,TGF-β1 content (Mean),[2]; Day 7,15443.1 pg/g
